Experimental data published in paper PMC7953810, “Divergent CPEB prion-like domains reveal different assembly mechanisms for a generic amyloid-like fold” (BMC Biology, 2021).
Each block holds one binder with its values, some of them ahead of it.

Biological target: T1, peptide DQ, ApCPEB PLD residues 121-140 with an N-terminal dansyl moiety (Aplysia californica, dansyl moiety (D*) on the N-terminus)
T1 construct: source: synthetic peptide, bought: GenScript
T1 peptide: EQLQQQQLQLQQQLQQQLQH
Assay: FRET or BRET + other: 1D 1H NMR; 20-mer peptides at 5 °C in 10 mM KH2PO4; excitation of Trp at 280 nm, dansyl emission at 530-550 nm; 1D 1H NMR with DSS as concentration standard
Conditions: both partners purified

binding result: binds
B1: peptide QW, ApCPEB PLD residues 121-140 with a C-terminal Trp (peptide)
peptide: EQLQQQQLQLQQQLQQQLQHW
notes: Trp added at the C-terminus (excited at 280 nm as the fluorescence donor); Wild-type stretch with one added Trp as a fluorescence probe; source: synthetic peptide, bought: GenScript

binding result: binds
B2: peptide WQ, ApCPEB PLD residues 121-140 with an N-terminal Trp (peptide)
peptide: WEQLQQQQLQLQQQLQQQLQH
notes: Trp added at the N-terminus (excited at 280 nm as the fluorescence donor); Wild-type stretch with one added Trp as a fluorescence probe; source: synthetic peptide, bought: GenScript
